# Patent publication US10800847
# Legend:
# [1] = molecular target: HLA-Cw*0102 (Cw1) (human); assay: Luminex, iBeads (#6), 1:8
# [2] = molecular target: HLA-Cw*0801 (Cw8) (human); assay: Luminex, regular beads (#7), 1:8
# [3] = molecular target: HLA-A*3002 (A30) single antigen on beads (human); assay: Luminex, iBead vs regular bead, IVIg 1:8
# [4] = molecular target: HLA-A*3201 (A32) single antigen on beads (human); assay: Luminex, iBead vs regular bead, IVIg 1:8
# HLA-B*1501 (B62) (human) = assay: Luminex regular beads (#7), IVIg diluted 1:8
# [5] = molecular target: HLA-A*4301 (A43) single antigen on beads (human); assay: Luminex single-antigen regular beads (#7), IVIg 1:8
# [6] = molecular target: HLA-A*7401 (A74) single antigen on Luminex beads (human); assay: Luminex single antigen bead assay, iBeads (#6), IVIg 1:8
# [7] = molecular target: HLA-A*6802 (A68) single antigen on Luminex beads (human); assay: Luminex single antigen bead assay, regular beads (#7), IVIg 1:8
# [8] = molecular target: HLA-A*6802 (A68) single antigen on Luminex beads (human); assay: Luminex single antigen bead assay, iBeads vs regular beads, IVIg 1:8
# [9] = molecular target: HLA-Cw*0401 (Cw4) (human); assay: Luminex, iBeads (#6), 1:8
# [10] = molecular target: HLA-A*4301 (A43) single antigen on beads (human); assay: Luminex, iBead vs regular bead, IVIg 1:8
# [11] = molecular target: HLA-A*6602 (A66) single antigen on beads (human); assay: Luminex, iBead vs regular bead, IVIg 1:8
# HLA-B*1516 (B63) (human) = assay: iBead MFI against regular-bead MFI, IVIg diluted 1:8
# [12] = molecular target: HLA-A*7401 (A74) single antigen on Luminex beads (human); assay: Luminex single antigen bead assay, iBeads vs regular beads, IVIg 1:8
# [13] = molecular target: HLA-Cw*0202 (Cw2) (human); assay: Luminex, iBeads (#6), 1:8
# [14] = molecular target: HLA-Cw*0102 (Cw1) (human); assay: Luminex, regular beads (#7), 1:4
# [15] = molecular target: HLA-Cw*0202 (Cw2) (human); assay: Luminex, regular beads (#7), 1:4
# [16] = molecular target: HLA-Cw*0302 (Cw10) (human); assay: Luminex, regular beads (#7), 1:4
# [17] = molecular target: HLA-Cw*0304 (Cw10) (human); assay: Luminex, regular beads (#7), 1:4
# [18] = molecular target: HLA-Cw*0602 (Cw6) (human); assay: Luminex, regular beads (#7), 1:4
# [19] = molecular target: HLA-Cw*0702 (Cw7) (human); assay: Luminex, regular beads (#7), 1:4
# [20] = molecular target: HLA-Cw*1203 (Cw12) (human); assay: Luminex, regular beads (#7), 1:4
# [21] = molecular target: HLA-Cw*1402 (Cw14) (human); assay: Luminex, regular beads (#7), 1:4
# [22] = molecular target: HLA-Cw*1502 (Cw15) (human); assay: Luminex, regular beads (#7), 1:4
# [23] = molecular target: HLA-Cw*1601 (Cw16) (human); assay: Luminex, regular beads (#7), 1:4
# [24] = molecular target: HLA-Cw*1701 (Cw17) (human); assay: Luminex, regular beads (#7), 1:4
# [25] = molecular target: HLA-Cw*1802 (Cw18) (human); assay: Luminex, regular beads (#7), 1:4
# [26] = molecular target: Albumin on negative control beads (serum albumin, HSA/BSA) (human or bovine); assay: Luminex single antigen beads, regular beads (#7), 1:8
# [27] = molecular target: HLA-A*0301 (A3) on single antigen beads (human) (UniProt P04439); assay: as above
# [28] = molecular target: HLA-B*2705 (B27) single antigen on Luminex beads (human); assay: Luminex single antigen, iBead vs regular bead, IVIg 1:8
# [29] = molecular target: HLA-B*2708 (B27) single antigen on Luminex beads (human); assay: as above
# [30] = molecular target: HLA-B*3501 (B35) single antigen on Luminex beads (human); assay: as above
# [31] = molecular target: HLA-B*3701 (B37) single antigen on Luminex beads (human); assay: as above
# [32] = molecular target: HLA-B*3801 (B38) single antigen on Luminex beads (human); assay: as above
# [33] = molecular target: HLA-B*3901 (B39) single antigen on Luminex beads (human); assay: as above
# [34] = molecular target: HLA-B*4001 (B60) single antigen on Luminex beads (human); assay: as above
# [35] = molecular target: HLA-B*4002 (B61) single antigen on Luminex beads (human); assay: as above
# [36] = molecular target: HLA-B*4006 (B61) single antigen on Luminex beads (human); assay: as above
# [37] = molecular target: HLA-B*4101 (B41) single antigen on Luminex beads (human); assay: as above
# [38] = molecular target: HLA-B*4201 (B42) single antigen on Luminex beads (human); assay: as above
# [39] = molecular target: HLA-B*4402 (B44) single antigen on Luminex beads (human); assay: as above
# [40] = molecular target: HLA-B*4403 (B44) single antigen on Luminex beads (human); assay: as above
# [41] = molecular target: HLA-B*4501 (B45) single antigen on Luminex beads (human); assay: as above
# [42] = molecular target: HLA-B*4701 (B47) single antigen on Luminex beads (human); assay: as above
MFI [1],MFI [2],Difference % (iBead MFI vs regular bead MFI) [3],Difference % (iBead MFI vs regular bead MFI) [4],MFI (HLA-B*1501 (B62) (human)),MFI [5],MFI [6],MFI [7],Difference % (iBead MFI against regular bead MFI) [8],MFI [9],Difference % (iBead MFI vs regular bead MFI) [10],Difference % (iBead MFI vs regular bead MFI) [11],Difference % (iBead vs regular bead) (HLA-B*1516 (B63) (human)),Difference % (iBead MFI against regular bead MFI) [12],MFI [13],Substance,other results
1060 MFI,4540 MFI,151%,116%,15 MFI,1170 MFI,515 MFI,1330 MFI,46%,,,,,,,IVIg Gamunex-C Lot NKLK1 (antibody),
,,,,0 MFI,,3900 MFI,,228%,3730 MFI,186%,372%,-36%,486%,,IVIg Gamunex-C Lot NKLG1 (antibody),
1780 MFI,4420 MFI,-31%,-30%,,,,1750 MFI,,2010 MFI,-11%,,,-59%,1840 MFI,"IVIg Octagam (Octapharma, Lachen, Switzerland) (antibody)",

# Continued, substance first:
Substance,MFI [1],MFI [2],Difference % (iBead MFI vs regular bead MFI) [3],Difference % (iBead MFI vs regular bead MFI) [4],MFI (HLA-B*1501 (B62) (human)),MFI [5],MFI [6],MFI [7],Difference % (iBead MFI against regular bead MFI) [8],MFI [9],Difference % (iBead MFI vs regular bead MFI) [10],Difference % (iBead MFI vs regular bead MFI) [11],Difference % (iBead vs regular bead) (HLA-B*1516 (B63) (human)),Difference % (iBead MFI against regular bead MFI) [12],MFI [13],other results
"IVIg Sandoglobulin (Novartis, Basel, Switzerland) (antibody)",,,,,,,,,,,,,,,,MFI [14]: 998 MFI; MFI [15]: 1280 MFI; MFI [16]: 1024 MFI; MFI [17]: 844 MFI; MFI [18]: 1560 MFI; MFI [19]: 1970 MFI; MFI [20]: 985 MFI; MFI [21]: 991 MFI; MFI [22]: 778 MFI; MFI [23]: 973 MFI; MFI [24]: 1490 MFI; MFI [25]: 1550 MFI
"IVIg GamaSTAN S/D (Talecris Biotherapeutics, USA) (antibody)",,,,,,1910 MFI,,,,,,83%,-7%,,8100 MFI,
"Octagam (IVIg, Octapharma, Lachen, Switzerland) (antibody)",,,,,,,,,,,,,,,,MFI [26]: 2340 MFI; MFI [27]: 515 MFI; Difference % (iBead against regular bead MFI) [28]: -100%; Difference % (iBead against regular bead MFI) [29]: -100%; Difference % (iBead against regular bead MFI) [30]: -100%; Difference % (iBead against regular bead MFI) [31]: -100%; Difference % (iBead against regular bead MFI) [32]: -100%; Difference % (iBead against regular bead MFI) [33]: 0%; Difference % (iBead against regular bead MFI) [34]: -100%; Difference % (iBead against regular bead MFI) [35]: -100%; Difference % (iBead against regular bead MFI) [36]: -97%; Difference % (iBead against regular bead MFI) [37]: -100%; Difference % (iBead against regular bead MFI) [38]: -100%; Difference % (iBead against regular bead MFI) [39]: -82%; Difference % (iBead against regular bead MFI) [40]: -39%; Difference % (iBead against regular bead MFI) [41]: -68%; Difference % (iBead against regular bead MFI) [42]: -57%
